{
  "source": "paper PMC4814116",
  "about": "“Design of Novel Relaxase Substrates Based on Rolling Circle Replicases for Bioconjugation to DNA Nanostructures”",
  "data": [
    {"molecular_target": "T1, MobAR (minMobA) (plasmid RSF1010, UniProt P07112 1-186)", "T1 sequence": "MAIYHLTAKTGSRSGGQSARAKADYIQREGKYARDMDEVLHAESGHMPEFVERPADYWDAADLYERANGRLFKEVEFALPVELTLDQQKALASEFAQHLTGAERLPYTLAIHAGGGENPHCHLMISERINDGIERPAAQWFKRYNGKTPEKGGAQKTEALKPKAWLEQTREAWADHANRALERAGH", "assay": "SDS-PAGE covalent complex; 5 mM Mg2+; Covalent complex: 15 uM oligo, 37 C 1 h, 5 mM MgCl2, 15 uM EDTA; TrwCR 10 mM Tris pH 7.6, 375 mM NaCl; MobAR 25 mM Tris pH 8.0, 225 mM NaCl; TraIR 10 mM Tris pH 7.6, 225 mM NaCl. EMSA: 50 nM oligo, 10 mM Tris pH 7.6, 100 mM NaCl, 1 mM EDTA, RT 30 min. Gel filtration: 100 mM Tris pH 7.6, 200 mM NaCl, EDTA", "conditions": "protein: recombinant; hairpin", "units": {"binding signal": "% covalent complex"}, "values": [
      {"binder": "CAGTTTCTCGAAGAGAAACCGGTAAGTGCGCCCTCCC (structured_DNA)", "note": "[RSF1010 WQ(30+7)]", "binding signal": "43.9 ± 1.4"},
      {"binder": "CCGGTTGAAAACCGGTAAGTGCGCCCTCCCC (structured_DNA)", "note": "[RSF1010 WQ(23+7)]", "binding signal": "41.4 ± 1.3"},
      {"binder": "GAGAAACCGGTAAGTGCGCCCTCCCCAGTTTCTC (structured_DNA)", "note": "[RSF1010 HQ(18+16)]", "binding signal": "13.1 ± 4.2"},
      {"binder": "GAGAAACCGGTAAGTGCGCCCTCCCGATCAGTTTCTC (structured_DNA)", "note": "[RSF1010 HQ(18+19)]", "binding signal": "9 ± 3.1"}
    ]},
    {"molecular_target": "T2, TrwCR (N-terminal relaxase domain of TrwC) (UniProt Q47673 1-293)", "T2 sequence": "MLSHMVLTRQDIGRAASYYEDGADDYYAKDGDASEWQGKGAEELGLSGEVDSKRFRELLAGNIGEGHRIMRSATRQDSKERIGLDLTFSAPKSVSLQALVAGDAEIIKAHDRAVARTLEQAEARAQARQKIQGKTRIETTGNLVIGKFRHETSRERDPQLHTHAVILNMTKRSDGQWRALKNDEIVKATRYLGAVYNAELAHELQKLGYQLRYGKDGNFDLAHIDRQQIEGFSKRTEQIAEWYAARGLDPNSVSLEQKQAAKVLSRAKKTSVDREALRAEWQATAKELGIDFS", "assay": "SDS-PAGE covalent complex; 5 mM Mg2+; Covalent complex: 15 uM oligo, 37 C 1 h, 5 mM MgCl2, 15 uM EDTA; TrwCR 10 mM Tris pH 7.6, 375 mM NaCl; MobAR 25 mM Tris pH 8.0, 225 mM NaCl; TraIR 10 mM Tris pH 7.6, 225 mM NaCl. EMSA: 50 nM oligo, 10 mM Tris pH 7.6, 100 mM NaCl, 1 mM EDTA, RT 30 min. Gel filtration: 100 mM Tris pH 7.6, 200 mM NaCl, EDTA", "conditions": "protein: recombinant", "units": {"binding signal": "% covalent complex"}, "values": [
      {"binder": "GGTGCGTATTGTCTATAGCCCAGATTTA (ssDNA)", "note": "[R388 W(14+14)]", "binding signal": "19.8 ± 1.9"},
      {"binder": "TATTGTCTATAGCCCACGCACC (ssDNA)", "note": "[R388 R(8+14)]", "binding signal": "30.2 ± 4.9"}
    ]},
    {"molecular_target": "T2, TrwCR (N-terminal relaxase domain of …)", "assay": "SDS-PAGE covalent complex; 5 mM Mg2+; Covalent complex: 15 uM oligo, 37 C 1 h, 5 mM MgCl2, 15 uM EDTA; TrwCR 10 mM Tris pH 7.6, 375 mM NaCl; MobAR 25 mM Tris pH 8.0, 225 mM NaCl; TraIR 10 mM Tris pH 7.6, 225 mM NaCl. EMSA: 50 nM oligo, 10 mM Tris pH 7.6, 100 mM NaCl, 1 mM EDTA, RT 30 min. Gel filtration: 100 mM Tris pH 7.6, 200 mM NaCl, EDTA", "conditions": "protein: recombinant; hairpin", "units": {"binding signal": "% covalent complex"}, "values": [
      {"binder": "GCGCACCGAAAGGTGCGTATTGTCTATAGCCCAGATTTAAGGA (structured_DNA)", "note": "[R388 W(25+18)]", "binding signal": "24.7 ± 2.1"},
      {"binder": "TATTGTCTATAGCCCACGCACCGAAAGGTGCG (structured_DNA)", "note": "[R388 R(8+24)]", "binding signal": "45.3 ± 6.6"},
      {"binder": "TATTGTCTATAGCCCAGATCGCACCGAAAGGTGCG (structured_DNA)", "note": "[R388 R(8+27)]", "binding signal": "44.7 ± 1"},
      {"binder": "GGTGCGTATTGTCTATCGCACC (structured_DNA)", "note": "[R388 H(14+8)]", "binding signal": "22.4 ± 5.7"},
      {"binder": "GGTGCGTATTGTCTATAGCGCACC (structured_DNA)", "note": "[R388 H(14+10)]", "binding signal": "23 ± 4.7"},
      {"binder": "GGTGCGTATTGTCTATAGCGCGCACC (structured_DNA)", "note": "[R388 H(14+12)]", "binding signal": "25.5 ± 3.1"},
      {"binder": "GGTGCGTATTGTCTATAGCCGCGCACC (structured_DNA)", "note": "[R388 H(14+13)]", "binding signal": "23.3 ± 2.9"},
      {"binder": "GGTGCGTATTGTCTATAGCCCGCGCACC (structured_DNA)", "note": "[R388 H(14+14)]", "binding signal": "26.8 ± 4.7"},
      {"binder": "GGTGCGTATTGTCTATAGCCCAGCGCACC (structured_DNA)", "note": "[R388 H(14+15)]", "binding signal": "19.6 ± 1.4"},
      {"binder": "GGTGCGTATTGTCTATAGCCCAGATCGCACC (structured_DNA)", "note": "[R388 H(14+17)]", "binding signal": "22.3 ± 6.1"}
    ]},
    {"molecular_target": "T3, TraIR (N-terminal domain of TraI) (plasmid RP4, UniProt Q00191 1-270)", "T3 sequence": "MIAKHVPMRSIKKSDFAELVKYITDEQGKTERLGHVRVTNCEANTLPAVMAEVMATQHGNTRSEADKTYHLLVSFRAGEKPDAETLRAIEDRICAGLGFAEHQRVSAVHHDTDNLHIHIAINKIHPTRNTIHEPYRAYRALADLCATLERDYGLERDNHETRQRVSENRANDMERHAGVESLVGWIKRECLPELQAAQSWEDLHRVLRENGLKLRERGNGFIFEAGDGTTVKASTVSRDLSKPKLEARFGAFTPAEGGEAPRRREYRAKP", "assay": "SDS-PAGE covalent complex; 5 mM Mg2+; Covalent complex: 15 uM oligo, 37 C 1 h, 5 mM MgCl2, 15 uM EDTA; TrwCR 10 mM Tris pH 7.6, 375 mM NaCl; MobAR 25 mM Tris pH 8.0, 225 mM NaCl; TraIR 10 mM Tris pH 7.6, 225 mM NaCl. EMSA: 50 nM oligo, 10 mM Tris pH 7.6, 100 mM NaCl, 1 mM EDTA, RT 30 min. Gel filtration: 100 mM Tris pH 7.6, 200 mM NaCl, EDTA", "conditions": "protein: recombinant", "units": {"binding signal": "% covalent complex"}, "values": [
      {"binder": "ACTTCACCTATCCTGCCCGGC (ssDNA)", "note": "[RP4 WP(15+6)]", "binding signal": "24.4 ± 5.7"}
    ]},
    {"molecular_target": "T3, TraIR (N-terminal domain of TraI)", "assay": "SDS-PAGE covalent complex; 5 mM Mg2+; Covalent complex: 15 uM oligo, 37 C 1 h, 5 mM MgCl2, 15 uM EDTA; TrwCR 10 mM Tris pH 7.6, 375 mM NaCl; MobAR 25 mM Tris pH 8.0, 225 mM NaCl; TraIR 10 mM Tris pH 7.6, 225 mM NaCl. EMSA: 50 nM oligo, 10 mM Tris pH 7.6, 100 mM NaCl, 1 mM EDTA, RT 30 min. Gel filtration: 100 mM Tris pH 7.6, 200 mM NaCl, EDTA", "conditions": "protein: recombinant; hairpin", "units": {"binding signal": "% covalent complex"}, "values": [
      {"binder": "GTGAAGGAAACTTCACCTATCCTGCCCGGCTG (structured_DNA)", "note": "[RP4 WP(24+8)]", "binding signal": "21.3 ± 0.9"},
      {"binder": "CTATCCTGCCCGGCTGGTGAAGGAAACTTCAC (structured_DNA)", "note": "[RP4 RP(8+24)]", "binding signal": "23.7 ± 2.7"}
    ]},
    {"molecular_target": "T2, TrwCR (N-terminal relaxase domain of …)", "assay": "gel filtration; EDTA; slight shift; Covalent complex: 15 uM oligo, 37 C 1 h, 5 mM MgCl2, 15 uM EDTA; TrwCR 10 mM Tris pH 7.6, 375 mM NaCl; MobAR 25 mM Tris pH 8.0, 225 mM NaCl; TraIR 10 mM Tris pH 7.6, 225 mM NaCl. EMSA: 50 nM oligo, 10 mM Tris pH 7.6, 100 mM NaCl, 1 mM EDTA, RT 30 min. Gel filtration: 100 mM Tris pH 7.6, 200 mM NaCl, EDTA", "conditions": "protein: recombinant; hairpin", "values": [
      {"binder": "ATTGTCTATAGCCCAGATCGCACCGAAAGGTGCG (structured_DNA)", "note": "[R388 R(7+27)]", "binding result": "binds"}
    ]},
    {"molecular_target": "T2, TrwCR (N-terminal relaxase domain of …)", "assay": "gel filtration; EDTA; Covalent complex: 15 uM oligo, 37 C 1 h, 5 mM MgCl2, 15 uM EDTA; TrwCR 10 mM Tris pH 7.6, 375 mM NaCl; MobAR 25 mM Tris pH 8.0, 225 mM NaCl; TraIR 10 mM Tris pH 7.6, 225 mM NaCl. EMSA: 50 nM oligo, 10 mM Tris pH 7.6, 100 mM NaCl, 1 mM EDTA, RT 30 min. Gel filtration: 100 mM Tris pH 7.6, 200 mM NaCl, EDTA", "conditions": "protein: recombinant; hairpin", "values": [
      {"binder": "CCGGTGCGTATTGTCTATAGCCCGCGCACCGG (structured_DNA)", "note": "[R388 H(16+16)]", "binding result": "binds"},
      {"binder": "AACCGGCTAGGTGCGTATTGTCTATAGCCCACGCACCTAGCCGGTT (structured_DNA)", "note": "[R388 H(23+23)]", "binding result": "binds"},
      {"binder": "AACCGGCTAGGTGCGTATTGTCTATAGCCCAGATCGCACCTAGCCGGTT (structured_DNA)", "note": "[R388 H(23+26)]", "binding result": "binds"}
    ]},
    {"molecular_target": "T2, TrwCR (N-terminal relaxase domain of …)", "assay": "SDS-PAGE covalent complex; 5 mM Mg2+; text says product not detected; Covalent complex: 15 uM oligo, 37 C 1 h, 5 mM MgCl2, 15 uM EDTA; TrwCR 10 mM Tris pH 7.6, 375 mM NaCl; MobAR 25 mM Tris pH 8.0, 225 mM NaCl; TraIR 10 mM Tris pH 7.6, 225 mM NaCl. EMSA: 50 nM oligo, 10 mM Tris pH 7.6, 100 mM NaCl, 1 mM EDTA, RT 30 min. Gel filtration: 100 mM Tris pH 7.6, 200 mM NaCl, EDTA", "conditions": "protein: recombinant; hairpin", "units": {"binding signal": "% covalent complex"}, "values": [
      {"binder": "ATAGCCCAGATCGCACCGAAAGGTGCG (structured_DNA)", "note": "[R388 R(0+27)]", "binding signal": "5.8 ± 1.9"},
      {"binder": "TATAGCCCAGATCGCACCGAAAGGTGCG (structured_DNA)", "note": "[R388 R(1+27)]", "binding signal": "9.9 ± 3.2"},
      {"binder": "GTCTATAGCCCAGATCGCACCGAAAGGTGCG (structured_DNA)", "note": "[R388 R(4+27)]", "binding signal": "9.9 ± 3.9"}
    ]}
  ]
}
